Positions count from the first letter of the chain named. One block for each binder: values may come before it.
What was measured:
[1] = target: T1, CD300c抗原(11832-H08H，义翘神州) (UniProt Q08708); assay: binding ELISA, CD300c antigen coated at 8 μg/mL, HRP anti-Fc IgG
T1 sequence (looked up): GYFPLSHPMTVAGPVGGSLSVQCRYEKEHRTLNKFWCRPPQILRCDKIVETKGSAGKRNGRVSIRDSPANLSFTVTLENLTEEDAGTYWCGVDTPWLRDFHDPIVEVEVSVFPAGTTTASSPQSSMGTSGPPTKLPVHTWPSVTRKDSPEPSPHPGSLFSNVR

小鼠CD300c抗原 (小鼠 (mouse)) = target: T2, 小鼠CD300c抗原 (小鼠 (mouse)); assay: cell-based or functional assay
T2 sequence (A2A7V7 whole entry, looked up): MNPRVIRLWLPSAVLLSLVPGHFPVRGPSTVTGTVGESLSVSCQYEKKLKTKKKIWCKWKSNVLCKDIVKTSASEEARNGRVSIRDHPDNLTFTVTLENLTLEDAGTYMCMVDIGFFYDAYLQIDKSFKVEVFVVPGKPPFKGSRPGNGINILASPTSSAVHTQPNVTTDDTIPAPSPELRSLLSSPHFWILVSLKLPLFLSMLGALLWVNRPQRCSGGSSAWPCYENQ

[2] = target: T3, CD300c overexpressed on the surface of 293T cells and THP-1 cells (UniProt Q08708); assay: flow cytometry (FACS binding) on THP-1 cells overexpressing CD300c, FITC anti-human IgG (H+L), MFI
T3 sequence (looked up): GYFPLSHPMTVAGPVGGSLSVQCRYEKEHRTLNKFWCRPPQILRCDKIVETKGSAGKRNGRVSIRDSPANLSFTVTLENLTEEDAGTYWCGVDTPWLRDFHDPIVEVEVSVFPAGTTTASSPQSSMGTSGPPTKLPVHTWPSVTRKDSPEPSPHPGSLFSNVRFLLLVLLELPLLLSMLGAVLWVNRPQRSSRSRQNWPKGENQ

[3] = target: T1, CD300c抗原(11832-H08H，义翘神州); assay: SPR, CD300c immobilised on CM5 chip (399.2 RU), CL7 0-6.25 μg/mL as analyte
[4] = target: T3, CD300c overexpressed on the surface of 293T cells and THP-1 cells; assay: flow cytometry (FACS binding) on 293T cells overexpressing CD300c, FITC anti-human IgG (H+L), MFI

- EC50 [1]: 0.793 µg/mL
B1: 抗CD300c单克隆抗体 CK3 (antibody, from another filing, V domains shown)
VH: RVQLLESGGGLVQPGGSLRLSCAASGFTFSSYAISWVRQAPGKGLEWVSATSGSGRATYYADSVKGRFTISRDNSKNTLYLQMNSLRAEDTAVYYCARDTWWEGYFDLWGQGTLVTVSS
VL: EIVLTQSPGTLSLSPGERATLSCQASHISTHLNWYQQKPGQAPRLLIYGASSRATGIPDRFSGSGSGTDFTLTISRLEPEDFAVYYCQQYNTYPPTFGQGTKVEIK

- EC50 [1]: 0.032 µg/mL
B2: 抗CD300c单克隆抗体 CL5 (antibody, from another filing, V domains shown)
VH: RVQLLESGGGLVQPGGSLRLSCAASGFTFSSYAMHWVRQAPGKGLEWVSSISGGGYGTYYADSVKGRFTISRDNSKNTLYLQMNSLRAEDTAVYYCARSTVWAFDIWGQGTLVTVSS
VL: QSVLTQPPSASGTPGQRVTISCSGNNIGSKSVHWYQQLPGTAPKLLIYDVSKRPSERPDRFSGSKSGTSASLAISDLRSEDEADYYCQSFDSSGTWIFGGGTKLTVL

- EC50 [1]: 0.056 µg/mL
B3: 抗CD300c单克隆抗体 CK1 (antibody, from another filing, V domains shown)
VH: EVQLLESGGGLVQPGGSLRLSCAASGFTFSRYAMTWVRQAPGKGLEWVSSMSGTGGTTYYADSVKGRFTISRDNSKNTLYLQMNSLRAEDTAVYYCARGAYGFDHWGQGTLVTVSS
VL: EIVLTQSPGTLSLSPGERATLSCRASQSIGNYLNWYQQKPGQAPRLLIYDASNLETGIPDRFSGSGSGTDFTLTISRLEPEDFAVYYCQQSSAIPYTFGQGTKVEIK

- EC50 [1]: 0.054 µg/mL
B10: 抗CD300c单克隆抗体 SK17 (antibody, from another filing, V domains shown)
VH: EVQLLESGGGLVQPGGSLRLSCAASGFTFSSYYWSWVRQAPGKGLEWVSTITGSGGSTDYANSVKGRFTISRDNSKNTLYLQMNSLRAEDTAVYYCATGGGIFDYWGQGTLVTVSS
VL: EIVLTQSPGTLSLSPGERATLSCQASQTISNYLNWYQQKPGQAPRLLIYDASNRATGIPDRFSGSGSGTDFTLTISRLEPEDFAVYYCQQYNSYPPSFGQGTKVEIK

- EC50 [1]: 0.039 µg/mL
- 癌细胞增殖抑制作用 (CT26 mouse colorectal cancer cells, CCK-8, 10 μg/mL antibody, 5 days) (小鼠CD300c抗原 (小鼠 (mouse))): 15 %
B11: 抗CD300c单克隆抗体 CL10 (antibody, from another filing, V domains shown)
VH: EVQLLESGGGLVQPGGSLRLSCAASGFTFSSYGMHWVRQAPGKGLEWVSAISGSGGSTYYADSVKGRFTISRDNSKNTLYLQMNSLRAEDTAVYYCASGYGLMDVWGQGTLVTVSS
VL: QSVLTQPPSASGTPGQRVTISCTRSSGIIASNYVQWYQQLPGTAPKLLIYRNNQRPSGVPDRFSGSKSGTSASLAISGLRSEDEADYYCSSYAGNNNLVFGGGTKLTVL

- EC50 [2]: 2.6 nM
- Kd [3]: 0.52 nM
- EC50 [4]: 2.7 nM
- EC50 [1]: 0.047 µg/mL
- 癌细胞增殖抑制作用 (CT26 mouse colorectal cancer cells, CCK-8, 10 μg/mL antibody, 5 days) (小鼠CD300c抗原 (小鼠 (mouse))): 66 %
B15: 抗CD300c单克隆抗体 CL7 (antibody, from another filing, V domains shown)
VH: EVQLLESGGGLVQPGGSLRLSCAASGFTFSRYAMSWVRQAPGKGLEWVSAISGSGGSTYYADSVKGRFTISRDNSKNTLYLQMNSLRAEDTAVYYCARSSQGIFDIWGQGTLVTVSS
VL: QSVLTQPPSASGTPGQRVTISCSGNNIGTRRVHWYQQLPDTAPKLLIYSKNNRPSGVPDRFSGSKSGTSASLAISGLRSEDEADYYCAAWDDSLSGPVFGGGTKLTVL

- EC50 [1]: 0.094 µg/mL
B16: 抗CD300c单克隆抗体 CL9 (antibody, from another filing, V domains shown)
VH: B15 VH with R31S, A33Y, M34W, S99I, S100D, Q101V, G102Y, I103G
VL: QSVLTQPPSASGTPGQRVTISCSGSTSNIGTNYVYWYQQLPGTAPKLLIYDNNNRPSGVPDRFSGSKSGTSASLAISGLRSEDEADYYCQTWDSSTDVVFGGGTKLTVL

More lines, now with the values behind:

B4: 抗CD300c单克隆抗体 CL6 (antibody, from another filing, V domains shown)
VH: EVQLLESGGGLVQPGGSLRLSCAASGFTFSSYGMHWVRQAPGKGLEWVSAISGSGGSTYYADSVKGRFTISRDNSKNTLYLQMNSLRAEDTAVYYCAVSGAGRGFFDYWGQGTLVTVSS
VL: QSVLTQPPSASGTPGQRVTISCSGSSSNIGSNYVYWYQQLPGTAPKLLIYEDNKRPSGVPDRFSGSKSGTSASLAISGLRSEDEADYYCSSYTSSSTVIFGGGTKLTVL
- EC50 [1]: 0.148 µg/mL

B5: 抗CD300c单克隆抗体 SK12 (antibody, from another filing)
chain: RVQLLESGGGLVQPGGSLRLSCAASGFTFSSYAMHWVRQAPGKGLEWVSAISGSGGDTYHADSVKGRFTISRDNSKNTLYLQMNSLRAEDTAVYYCTRGLSGFDYWGQGTLVTVSSGGGGSGGGGSGGGGSEIVLTQSPGTLSLSPGERATLSCRASQSISSYLNWYQQKPGQAPRLLIYDASNRAPGIPDRFSGSGSGTDFTLTISRLEPEDFAVYYCQQSYSIPITFGQGTKVEIK
- EC50 [1]: 0.067 µg/mL

B6: 抗CD300c单克隆抗体 CL4 (antibody, from another filing, V domains shown)
VH: RVQLLESGGGLVQPGGSLRLSCAASGFTFGSNYMSWVRQAPGKGLEWVSTISGSGTSTYYADSLKGRFTISRDNSKNTLYLQMNSLRAEDTAVYYCARGMWGMDVWGQGTLVTVSS
VL: QSVLTQPPSASGTPGQRVTISCTGKHRHTVNWYQLLPGTAPKLLIYLDSERPSGVPDRFSGSKSGTSASLAISGLRSEDEADYYCQSYDSSSVVFGGGTKLTVL
- EC50 [1]: 0.031 µg/mL

B7: 抗CD300c单克隆抗体 SL18 (antibody, from another filing)
chain: RVQLLESGGGLVQPGGSLRLSCAASGFTFSDYHMHWVRQAPGKGLEWVSTISSSGGYTYYAESVKSRFTISRDNSKNTLYLQMNSLRAEDTAVYYCARSIRLPLDYWGQGTLVTVSSSGGGSGGGGSGGGGSQSVLTQPPSASGTPGQRVTISCSGNNIGSKGVHWYQQLPGTAPKLLIYEDSKRPSGVRDRFSGSKSGTSASLAISGLRSEDEADYYCQSYDSTKGVVFGGGTKLTVL
- EC50 [1]: 0.17 µg/mL
- 癌细胞增殖抑制作用 (CT26 mouse colorectal cancer cells, CCK-8, 10 μg/mL antibody, 5 days) (小鼠CD300c抗原 (小鼠 (mouse))): 38 %

B8: 抗CD300c单克隆抗体 SK13 (antibody, from another filing, V domains shown)
VH: RVQLLESGGGLVQPGGSLRLSCAASGFTFSDYAMSWVRQAPGKGLEWVSSISSSSSYIYYTDSVKGRFTISRDNSKNTLYLQMNSLRAEDTAVYYCARGGYGFDYWGQGTLVTVSS
VL: EIVLTQSPGTLSLSPGERATLSCRASQSISSYLNWYQQKPGQAPRLLIYSASSRPQGIPDRFSGSGSGTDFTLTISRLEPEDFAVYYCQQYDDLPFTFGQGTKVEIK
- EC50 [1]: 0.044 µg/mL

B9: 抗CD300c单克隆抗体 SK16 (antibody, from another filing, V domains shown)
VH: RVQLLESGGGLVQPGGSLRLSCAASGFTFSSYAMSWVRQAPGKGLEWVSAINGSGGSTLYADSVKGRFTISRDNSKNTLYLQMNSLRAEDTAVYYCARGVSGFDSWGQGTLVTVSS
VL: B3 VL with A25I, G30S, N31S, N53L, L54R, E55A, S92Y, A93K, I94T, Y96I
- EC50 [1]: 2.42 µg/mL

B12: 抗CD300c单克隆抗体 CK2 (antibody, from another filing, V domains shown)
VH: B11 VH with G56T, T58I, S98R, Y100G, G101T, L102A, M103F, V105Y
VL: EIVLTQSPGTLSLSPGERATLSCRASQRSDNYLAWYQQKPGQAPRLLIYDASNRATGIPDRFSGSGSGTDFTLTISRLEPEDFAVYYCQQSYSTPFTFGQGTKVETK
- EC50 [1]: 0.033 µg/mL

B13: 抗CD300c单克隆抗体 SK11 (antibody, from another filing, V domains shown)
VH: B11 VH with E1R, S31T, S98R, Y100L, G101S, L102G, M103L, V105Y
VL: B12 VL with A25S, R28G, S29I, D30T, F96L, T106I
- EC50 [1]: 0.052 µg/mL

B14: 抗CD300c单克隆抗体 SK15 (antibody, from another filing, V domains shown)
VH: B9 VH with S35H, L59Y, M83T, V100L, S101Q, S105Y
VL: B3 VL with R24Q, S28D, G30T, N53S, S92Y, A93S, I94T, Y96I
- EC50 [1]: 14.7 µg/mL

B17: 抗CD300c单克隆抗体 SK14 (antibody, from another filing)
chain: EVQLLESGGGLVQPGGSLRLSCAASGFTFSNFAIAWVRQAPGKGLEWVSAISGRGTSTYYADSVKGRFTISRDNSKNTLYLQMNSLRAEDTAVYYCARGVSGFDSWGQGTLVTVSSGGGGSGGGGSGGGGSEIVLTQSPGTLSLSPGERATLSCRASQSISSHLAWYQQKPGQAPRLLIYDTSNRATGIPDRFSGSGSGTDFTLTISRLEPEDFAVYYCQQSYSTPFTFGQGTKVEIK
- EC50 [1]: 0.065 µg/mL

— patent CN117751141A
